Measured values as given in patent publication US20240018245A1 (Genentech, published 2024).

Assays:
[1] = biological target: CD3 on T cells of human peripheral blood mononuclear cells (PBMCs) (human, UniProt P07766 23-207); assay: cell-based or functional assay
[2] = biological target: T1, FcRH5 (fragment crystallizable receptor-like 5) on MOLP-2 cells (human, UniProt Q96RD9 16-977); assay: cell-based or functional assay
T1 sequence (looked up): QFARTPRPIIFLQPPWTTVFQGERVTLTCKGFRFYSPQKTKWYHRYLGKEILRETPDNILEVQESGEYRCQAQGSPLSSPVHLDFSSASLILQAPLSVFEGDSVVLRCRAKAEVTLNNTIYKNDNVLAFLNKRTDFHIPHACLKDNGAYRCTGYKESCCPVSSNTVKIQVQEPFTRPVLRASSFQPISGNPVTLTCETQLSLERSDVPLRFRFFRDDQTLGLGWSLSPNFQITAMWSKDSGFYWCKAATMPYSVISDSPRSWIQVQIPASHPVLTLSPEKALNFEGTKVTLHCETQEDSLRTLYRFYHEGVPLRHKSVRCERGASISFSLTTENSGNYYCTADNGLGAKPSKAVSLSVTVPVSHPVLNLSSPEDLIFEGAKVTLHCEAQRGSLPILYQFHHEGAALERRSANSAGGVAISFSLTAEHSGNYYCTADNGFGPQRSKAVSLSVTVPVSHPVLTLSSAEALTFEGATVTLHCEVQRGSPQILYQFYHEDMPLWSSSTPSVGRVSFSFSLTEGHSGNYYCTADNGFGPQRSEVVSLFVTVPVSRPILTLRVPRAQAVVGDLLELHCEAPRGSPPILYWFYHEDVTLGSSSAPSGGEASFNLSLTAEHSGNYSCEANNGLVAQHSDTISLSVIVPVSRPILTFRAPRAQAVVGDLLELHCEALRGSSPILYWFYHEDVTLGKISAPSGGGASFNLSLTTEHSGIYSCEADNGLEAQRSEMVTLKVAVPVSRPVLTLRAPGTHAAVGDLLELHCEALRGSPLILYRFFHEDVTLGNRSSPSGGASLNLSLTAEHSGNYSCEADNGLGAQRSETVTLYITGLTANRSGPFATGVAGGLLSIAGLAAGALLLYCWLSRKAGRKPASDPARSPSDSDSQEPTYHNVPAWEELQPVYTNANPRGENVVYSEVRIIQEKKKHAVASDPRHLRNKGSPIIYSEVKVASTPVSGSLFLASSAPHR

[3] = biological target: T2, CD3 (cluster of differentiation 3) (UniProt P07766 23-126); assay: method not stated; monovalent KD used to calculate CD3 receptor occupancy
T2 construct: also called CD3 antigen
T2 sequence (P07766 23-126): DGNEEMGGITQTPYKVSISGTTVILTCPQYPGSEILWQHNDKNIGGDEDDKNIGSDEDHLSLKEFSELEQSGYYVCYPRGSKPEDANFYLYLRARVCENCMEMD

CD3 on T cells of human peripheral blood mononuclear cells (PBMCs), sequence (P07766 23-207): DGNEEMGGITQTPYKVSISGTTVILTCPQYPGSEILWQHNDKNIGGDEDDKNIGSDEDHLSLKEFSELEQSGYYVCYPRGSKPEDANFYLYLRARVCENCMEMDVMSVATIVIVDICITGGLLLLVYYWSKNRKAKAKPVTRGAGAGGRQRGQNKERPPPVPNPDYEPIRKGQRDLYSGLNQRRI

- EC50 for T-cell activation in the in vitro human PBMC:MOLP-2 co-culture [1]: 0.0588 µg/mL
- EC50 for T-cell activation in the in vitro human PBMC:MOLP-2 co-culture [2]: 0.0588 µg/mL
- Kd [3]: 2.6 nM
B1: cevostamab (bispecific antibody, human IgG1, kappa, N297G)
heavy 1: not shown
light 1: DIQMTQSPSSLSASVGDRVTITCKASQDVRNLVVWFQQKPGKAPKLLIYSGSYRYSGVPSRFSGSGSGTDFTLTISSLQPEDFATYYCQQHYSPPYTFGQGTKVEIKRTVAAPSVFIFPPSDEQLKSGTASVVCLLNNFYPREAKVQWKVDNALQSGNSQESVTEQDSKDSTYSLSSTLTLSKADYEKHKVYACEVTHQGLSSPVTKSFNRGEC
heavy 2: EVQLVQSGAEVKKPGASVKVSCKASGFTFTSYYIHWVRQAPGQGLEWIGWIYPENDNTKYNEKFKDRVTITADTSTSTAYLELSSLRSEDTAVYYCARDGYSRYYFDYWGQGTLVTVSSASTKGPSVFPLAPSSKSTSGGTAALGCLVKDYFPEPVTVSWNSGALTSGVHTFPAVLQSSGLYSLSSVVTVPSSSLGTQTYICNVNHKPSNTKVDKKVEPKSCDKTHTCPPCPAPELLGGPSVFLFPPKPKDTLMISRTPEVTCVVVDVSHEDPEVKFNWYVDGVEVHNAKTKPREEQYGSTYRVVSVLTVLHQDWLNGKEYKCKVSNKALPAPIEKTISKAKGQPREPQVYTLPPSREEMTKNQVSLSCAVKGFYPSDIAVEWESNGQPENNYKTTPPVLDSDGSFFLVSKLTVDKSRWQQGNVFSCSVMHEALHNHYTQKSLSLSPGK
light 2: not shown
notes: Humanized full-length non-glycosylated IgG1 kappa, knobs-into-holes; also called BFCR4350A; RO7187797
